# Assay results from patent publication US7507538B2, “Human papilloma virus immunoreactive peptides” (priority 2001, dated 2009).
# “Also recorded” adds a separate entry of the source.
# Experiments:
# [1] = test system: autologous PBMC pulsed with HPV-16E6 or HPV-18E6 peptides; assay: 51Cr release lysis of peptide-pulsed autologous PBMC by lymphocytes stimulated in vitro with peptide; assay type: cell-based, human; settings: lymphocytes of an HLA-A2 patient, peptide at 10 μm for 1-3 weeks, FIG. 2
# Method: To determine if lymphocytes stimulated in vitro with either the HPV-18E6 peptide (SEQ ID NO. 1) or the HPV-16E6 peptide (SEQ ID NO. 10) would recognize and lyse peripheral blood mononuclear cells (PBMCs) pulsed with these peptides, the following experiment was performed. Lymphocytes isolated from a patient known to carry and express the HLA-A2 allele were stimulated in vitro (IVS) with either the HPV-18E6 peptide (SEQ ID NO. 1) or the HPV-16E6 peptide (SEQ ID NO. 10) at a 10 μm concentration for 1-3 weeks. Autologous PBMC target cells were radiolabeled with ^51Cr and pulsed with either the HPV-18E6 peptide (SEQ ID NO. 1) or the HPV-16E6 peptide (SEQ ID NO. 10). Each of the IVS lymphocyte populations were then mixed with each of the pulsed and labeled PBMC target cells and specific lysis was measured. Lymphocytes IVS with either the HPV-18E6 peptide (SEQ ID NO. 1) or the HPV-16E6 peptide (SEQ ID NO. 10) were able to lyse PBMCs which were pulsed with either the HPV-18E6 peptide (SEQ ID NO. 1) or the HPV-16E6 peptide (SEQ ID NO. 10) and had either the HPV-18E6 peptide (SEQ ID NO. 1) or the HPV-16E6 (SEQ ID NO. 10) peptide on their cell surface.
# T cell cytotoxicity is measured by the standard ^51Cr-release assay. Briefly, target cells are radiolabeled with Na2 ^51CrO4. The patient's PBMC (which have been previously stimulated with an HPV peptide of Example 1 at 10 μm concentration for 1 to 3 weeks) are added to the labeled target cells in the presence or absence of the peptide. Cell lysis is determined by the specific release of ^51Cr (specific lysis). Target cells are autologous B-LCL or T2 cells pulsed with the peptide. If there is a detectable pre-immunization specific lysis, a 2.0 fold increase in the lytic units will be considered a positive response. If there is no detectable pre-immunization specific lysis, a post-immunization specific lysis of […] 10% above the controls will be considered a positive response.
# [2] = biological target: T1, HLA-A2 molecule (Homo sapiens, UniProt P04439, D140Y/D185E/D98H/E176V/E277Q/G131W/G231S/I119V/I121R/I166T/I218V/L300P/L318F/N151K/N90K/P208A/P217A/Q86G/Q94H/R138H/R169H/T345S); assay: Binding of fluorescently labeled peptide to T2A2 cells; settings: for affinity for HLA-A2 relative to the other peptides tested / binding to the HLA-A2 molecules on the surface of T2A2 cells: FIG. 1; for binding to the HLA-A2 molecules on the surface of T2A2 cells: fluorescently labeled peptide
# T1 construct: endogenous in cells; host or cells: T2A2 cells
Sequence,specific lysis of autologous PBMC pulsed with either HPV-18E6 or HPV-16E6 peptide by lymphocytes stimulated in vitro with the peptide ([1]; listed as HPV-18E6 peptide),specific lysis of autologous PBMC pulsed with either HPV-18E6 or HPV-16E6 peptide by lymphocytes stimulated in vitro with the peptide ([1]; listed as HPV-18E6 peptides),fold higher affinity for the HLA-A2 molecule than the homologous HPV-16E6 peptide KLPQLCTEL ([2]; T2A2 cells),affinity for HLA-A2 relative to the other peptides tested ([2]; T2A2 cells),"affinity for HLA-A2 relative to the other peptides tested ([2]; T2A2 cells, listed as HPV-18E6 (13-21) peptide)",binding to the HLA-A2 molecules on the surface of T2A2 cells [2],binding to the HLA-A2 molecules on the surface of T2A2 cells ([2]; listed as HPV-18E6 (13-21) peptide),binding to the HLA-A2 molecules on the surface of T2A2 cells ([2]; listed as HPV-18E6 peptide),specific lysis of autologous PBMC pulsed with either HPV-18E6 or HPV-16E6 peptide by lymphocytes stimulated in vitro with the peptide ([1]; listed as HPV-16E6 peptide),specific lysis of autologous PBMC pulsed with either HPV-18E6 or HPV-16E6 peptide by lymphocytes stimulated in vitro with the peptide ([1]; listed as HPV-16E6 peptides)
KLPDLCTEL,able to lyse; also recorded: able to elicit an immune response,specifically lyse,approximately 100 fold,higher affinity than did either the FMP peptide or the homologous peptide from the HPV-16E6 protein,higher than the homologous HPV-16E6 peptide,bound,high affinity,able to bind,,
"KLPQLCTEL [homologous peptide from the HPV-16E6 protein (amino acids 13-21), reference compound]",,,,,,,,,able to lyse,lyse
